We go through 2 molecules from article PMC9748339, “Co-crystalization reveals the interaction between AtYchF1 and ppGpp” (Frontiers in Molecular Biosciences, 2022).

One data set concerns the target T1, MBP-AtYchF1 (Arabidopsis thaliana, UniProt Q9SA73).
T1 construct: gene YchF1; AtYchF1 cDNA in pMAL-C2, N-terminal MBP tag kept, E. coli BL21 (DE3)
T1 sequence (Q9SA73 1-394): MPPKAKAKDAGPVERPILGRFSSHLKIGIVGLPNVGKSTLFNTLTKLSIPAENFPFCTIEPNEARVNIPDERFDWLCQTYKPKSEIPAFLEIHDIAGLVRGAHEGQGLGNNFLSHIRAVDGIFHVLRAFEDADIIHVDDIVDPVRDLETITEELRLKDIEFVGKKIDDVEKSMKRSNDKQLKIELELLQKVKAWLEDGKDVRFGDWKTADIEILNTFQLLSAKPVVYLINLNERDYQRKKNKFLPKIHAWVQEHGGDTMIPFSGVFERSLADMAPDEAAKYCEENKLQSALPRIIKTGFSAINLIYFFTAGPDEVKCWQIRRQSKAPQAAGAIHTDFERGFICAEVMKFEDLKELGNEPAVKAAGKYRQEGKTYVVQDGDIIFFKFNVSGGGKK
In words: competition with Mant-GTP or Mant-ATP, fluorescence […]-500 nm. To be noted: 31 μM Mant-GTP or Mant-ATP; about 100 μM MBP-AtYchF1; competitive. In kind it is binding.

Substrate in data set [1]: Nc1nc2c(ncn2[C@@H]2O[C@H](COP(=O)(O)OP(=O)(O)O)[C@@H](OP(=O)(O)OP(=O)(O)O)[C@H]2O)c(=O)[nH]1
Briefly: purified protein. The class given is biochemical, Arabidopsis thaliana. To be noted: 300 μM MBP-AtYchF1; room temperature; PPi release.

Substrate in data set [2]: Nc1nc2c(ncn2[C@@H]2O[C@H](COP(=O)(O)OP(=O)(O)OP(=O)(O)O)[C@@H](O)[C@H]2O)c(=O)[nH]1
Briefly: purified protein. The class given is biochemical, Arabidopsis thaliana. To be noted: 300 μM MBP-AtYchF1; Pi release.

Substrate in data set [3]: Nc1ncnc2c1ncn2[C@@H]1O[C@H](COP(=O)(O)OP(=O)(O)OP(=O)(O)O)[C@@H](O)[C@H]1O
In words: purified protein. In kind it is biochemical, Arabidopsis thaliana. To be noted: 300 μM MBP-AtYchF1; Pi release.

With `Nc1nc2c(ncn2[C@@H]2O[C@H](COP(=O)(O)OP(=O)(O)O)[C@@H](OP(=O)(O)OP(=O)(O)O)[C@H]2O)c(=O)[nH]1` [ppGpp], the “competition with Mant-GTP or Mant-ATP, fluorescence 400-500 nm” value on MBP-AtYchF1 was “ppGpp competed well against Mant-GTP and Mant-ATP for the binding of MBP-AtYchF1”.

B1: MBP-AtYchF1 (Arabidopsis thaliana) (protein)
chain: T1 sequence (Q9SA73 1-394)
notes: AtYchF1 cDNA in pMAL-C2, N-terminal MBP tag kept, E. coli BL21 (DE3)
The term Km denotes the substrate concentration at which the rate is half of its maximum. By Vmax is commonly meant the top rate of the reaction or transport when substrate is in excess. As for B1, the Km stood at 2235 ± 294.3 µM in “purified protein [1]”, 1203 ± 125.5 µM in the data set “purified protein [2]” and 1278 ± 183.8 µM in the data set “purified protein [3]”. Further, the maximal velocity (Vmax) was 0.0349 µmol/min in the data set “purified protein [1]”, 0.0924 µmol/min in the data set “purified protein [2]” and 0.0939 µmol/min in “purified protein [3]”.
